Results from PMC6662825, “The MTR4 helicase recruits nuclear adaptors of the human RNA exosome using distinct arch-interacting motifs” (Nature Communications, 2019).
Values belong to the binder of their own block, whether it stands above or below them.

B1: Trx-NVL^1–266 (domain or fragment, human, UniProt O15381 1-266, looked up)
chain: MKPRPAGFVDNKLKQRVIQYLTSNKCGKYVDIGVLASDLQRVYSIDYGRRKRNAFRIQVEKVFSIISSEKELKNLTELEDEHLAKRARQGEEDNEYTESYSDDDSSMEDYPDPQSANHMNSSLLSLYRKGNPDSVSNTPEMEQRETTSSTPRISSKTGSIPLKTPAKDSEGGWFIDKTPSVKKDSFFLDLSCEKSNPKKPITEIQDSKDSSLLESDMKRKGKLKNKGSKRKKEDLQEVDGEIEAVLQKKAKARGLEFQISNVKFED
notes: also called N-terminal region of human NVL tagged with thioredoxin; source: E. coli BL21 star (DE3), purified (Ni-NTA, SEC); not shown: 6xHis-Trx, N-terminal, kept

Key:
Conditions in all cases: both partners purified
GST-MTR4-∆N [1] = target: T1, GST-MTR4-∆N (human, UniProt P42285 75-1042); experiment: pull-down; GST-tagged MTR4 constructs as bait, Trx-NVL constructs as prey, glutathione sepharose; 10 μM GST-MTR4∆N with 20 μM Trx-NVL constructs; 50 mM Hepes pH 7.5, 150 mM NaCl, 5% glycerol, 0.05% NP40, 1 mM DTT, 30 min at 4 °C; SDS-PAGE, Coomassie
T1 construct: Tag is cleavable with 3C protease; kept for the GST pull-downs; also called GST-tagged MTR4∆N; source: E. coli BL21 star (DE3), purified (Ni-NTA, heparin, SEC); not shown: 6xHis-GST, N-terminal, kept
T1 sequence (looked up): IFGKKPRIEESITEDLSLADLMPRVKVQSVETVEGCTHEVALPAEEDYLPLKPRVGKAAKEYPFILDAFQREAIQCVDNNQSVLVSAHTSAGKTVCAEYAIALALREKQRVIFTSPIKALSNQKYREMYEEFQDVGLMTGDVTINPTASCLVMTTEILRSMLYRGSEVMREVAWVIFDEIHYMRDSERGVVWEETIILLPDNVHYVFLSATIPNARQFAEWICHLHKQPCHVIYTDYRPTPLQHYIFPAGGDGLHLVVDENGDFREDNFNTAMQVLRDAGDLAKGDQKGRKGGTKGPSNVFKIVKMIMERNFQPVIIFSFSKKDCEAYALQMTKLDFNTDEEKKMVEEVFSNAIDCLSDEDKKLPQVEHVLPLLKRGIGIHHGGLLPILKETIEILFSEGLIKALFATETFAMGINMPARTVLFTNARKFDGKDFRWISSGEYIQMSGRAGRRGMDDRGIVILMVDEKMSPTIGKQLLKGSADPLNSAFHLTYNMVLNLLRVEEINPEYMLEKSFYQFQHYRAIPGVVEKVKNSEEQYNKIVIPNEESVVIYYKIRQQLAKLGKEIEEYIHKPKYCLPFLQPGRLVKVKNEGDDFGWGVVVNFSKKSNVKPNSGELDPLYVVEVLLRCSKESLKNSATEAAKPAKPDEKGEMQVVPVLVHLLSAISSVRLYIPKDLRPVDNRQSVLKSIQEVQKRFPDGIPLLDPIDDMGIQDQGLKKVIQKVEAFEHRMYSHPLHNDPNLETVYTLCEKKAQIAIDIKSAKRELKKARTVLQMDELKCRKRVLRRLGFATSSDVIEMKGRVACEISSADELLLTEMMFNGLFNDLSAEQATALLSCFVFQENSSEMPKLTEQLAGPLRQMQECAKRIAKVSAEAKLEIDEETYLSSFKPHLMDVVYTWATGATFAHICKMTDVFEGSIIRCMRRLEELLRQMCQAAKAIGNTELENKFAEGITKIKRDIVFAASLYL

Trx-NVL^1–266 = target: B1; experiment: as above
MTR4-KOW = target: T2, MTR4-KOW (human, UniProt P42285 645-787); experiment: MST; 1 μM MBP-ZCCHC8^91–211-(GS)3-eYFP with a 1:1 dilution series of unlabeled MTR4-KOW; 50 mM Hepes/NaOH pH 7.5, 150 mM NaCl, 5% glycerol, 0.5 mM TCEP; MST power 70%, LED power 15%; triplicates
T2 construct: human MTR4 KOW domain, residues 645–787; Named without GST in MST, NMR and ITC; the methods say the His-GST tag was cleaved with 3C protease 'when appropriate', so it was probably removed; Isotope-labelled for NMR; also called unlabeled MTR4 KOW; 15N-labelled MTR4-KOW; source: E. coli BL21 star (DE3), purified (Ni-NTA, heparin, SEC); minimal medium with 15N/13C for NMR
T2 sequence (looked up): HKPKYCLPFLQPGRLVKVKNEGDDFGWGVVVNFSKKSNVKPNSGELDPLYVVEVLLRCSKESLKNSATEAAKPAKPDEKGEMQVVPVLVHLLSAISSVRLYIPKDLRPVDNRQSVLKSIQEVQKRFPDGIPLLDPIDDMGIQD

GST-MTR4∆N R743E = target: T3, GST-MTR4∆N R743E (human, UniProt P42285 75-1042, R743E); experiment: pull-down; GST-tagged MTR4 constructs as bait, MBP-ZCCHC8 constructs as prey, glutathione sepharose; 2 μM GST-MTR4∆N with 8 μM MBP-ZCCHC8 constructs; 50 mM Hepes pH 7.5, 150 mM NaCl, 5% glycerol, 0.05% NP40, 1 mM DTT, 30 min at 4 °C; SDS-PAGE, Coomassie
T3 construct: also called R743E mutant; source: E. coli BL21 star (DE3), purified (Ni-NTA, heparin, SEC); not shown: 6xHis-GST, N-terminal, kept
T3 sequence (looked up): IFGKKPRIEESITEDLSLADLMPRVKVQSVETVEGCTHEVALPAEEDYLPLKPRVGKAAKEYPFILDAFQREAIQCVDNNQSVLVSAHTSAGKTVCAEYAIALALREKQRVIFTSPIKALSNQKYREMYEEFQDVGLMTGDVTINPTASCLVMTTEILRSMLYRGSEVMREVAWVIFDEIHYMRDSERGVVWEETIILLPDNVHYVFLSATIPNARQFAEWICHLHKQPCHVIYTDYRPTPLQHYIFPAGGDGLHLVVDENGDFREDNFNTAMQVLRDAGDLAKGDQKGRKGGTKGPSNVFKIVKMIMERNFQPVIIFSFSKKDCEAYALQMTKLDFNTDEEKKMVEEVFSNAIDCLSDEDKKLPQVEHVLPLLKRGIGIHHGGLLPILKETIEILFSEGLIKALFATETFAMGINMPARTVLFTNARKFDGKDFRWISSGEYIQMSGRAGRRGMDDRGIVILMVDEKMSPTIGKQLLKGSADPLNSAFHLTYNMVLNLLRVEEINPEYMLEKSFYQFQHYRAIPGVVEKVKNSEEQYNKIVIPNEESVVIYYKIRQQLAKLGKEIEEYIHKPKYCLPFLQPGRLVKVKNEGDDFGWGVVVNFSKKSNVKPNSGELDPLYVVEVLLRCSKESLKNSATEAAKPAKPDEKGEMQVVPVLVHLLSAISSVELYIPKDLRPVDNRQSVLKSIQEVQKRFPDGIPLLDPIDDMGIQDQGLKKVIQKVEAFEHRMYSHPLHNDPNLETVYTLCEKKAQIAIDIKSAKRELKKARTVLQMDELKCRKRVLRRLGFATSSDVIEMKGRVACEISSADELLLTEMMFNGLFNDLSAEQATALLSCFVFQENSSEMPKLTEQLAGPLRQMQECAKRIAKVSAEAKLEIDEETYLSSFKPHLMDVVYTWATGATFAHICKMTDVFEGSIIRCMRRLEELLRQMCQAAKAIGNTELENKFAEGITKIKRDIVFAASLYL

GST-MTR4-∆N [2] = target: T1, GST-MTR4-∆N; experiment: as above

Binder: B1
- binding result (GST-MTR4-∆N [1]): binds

B2: GST-MTR4-KOW (domain or fragment, human, UniProt P42285 645-787, looked up)
chain: HKPKYCLPFLQPGRLVKVKNEGDDFGWGVVVNFSKKSNVKPNSGELDPLYVVEVLLRCSKESLKNSATEAAKPAKPDEKGEMQVVPVLVHLLSAISSVRLYIPKDLRPVDNRQSVLKSIQEVQKRFPDGIPLLDPIDDMGIQD
notes: human MTR4 KOW domain, residues 645–787; also called GST-tagged MTR4 KOW; source: E. coli BL21 star (DE3), purified (Ni-NTA, heparin, SEC); not shown: 6xHis-GST, N-terminal, kept
- binding result (Trx-NVL^1–266): binds

B3: MBP-ZCCHC8^91–211-(GS)3-eYFP (domain or fragment, human, UniProt Q6NZY4 91-211, looked up)
chain: DGPILQILFMNNAISKQYHQEIEEFVSNLVKRFEEQQKNDVEKTSFNLLPQPSSIVLEEDHKVEESCAIKNNKEAFSVVGSVLYFTNFCLDKLGQPLLNENPQLSEGWEIPKYHQVFSHIV
notes: also called ZCCHC8-YFP fusion protein; source: E. coli BL21 star (DE3), purified (Ni-NTA, SEC); not shown: 6xHis-MBP, N-terminal, kept; (GS)3-eYFP, C-terminal, kept
- Kd (MTR4-KOW): ~300 nM

B4: MBP-ZCCHC8^91–211 (domain or fragment, human, UniProt Q6NZY4 91-211, looked up)
chain: DGPILQILFMNNAISKQYHQEIEEFVSNLVKRFEEQQKNDVEKTSFNLLPQPSSIVLEEDHKVEESCAIKNNKEAFSVVGSVLYFTNFCLDKLGQPLLNENPQLSEGWEIPKYHQVFSHIV
notes: source: E. coli BL21 star (DE3), purified (Ni-NTA, SEC); not shown: 6xHis-MBP, N-terminal, kept
- binding result (GST-MTR4∆N R743E): binds

Next, values leading:

- binding result (GST-MTR4-∆N [2]): binds
B5: MBP-ZCCHC8^91–211 W198A/K202E (domain or fragment, human, UniProt Q6NZY4 91-211, looked up)
chain: DGPILQILFMNNAISKQYHQEIEEFVSNLVKRFEEQQKNDVEKTSFNLLPQPSSIVLEEDHKVEESCAIKNNKEAFSVVGSVLYFTNFCLDKLGQPLLNENPQLSEGAEIPEYHQVFSHIV
notes: also called W198A/K202E mutant; source: E. coli BL21 star (DE3), purified (Ni-NTA, SEC); not shown: 6xHis-MBP, N-terminal, kept

- binding result (GST-MTR4-∆N [2]): binds
B6: MBP-ZCCHC8^91–211 F178A/D181R (domain or fragment, human, UniProt Q6NZY4 91-211, looked up)
chain: DGPILQILFMNNAISKQYHQEIEEFVSNLVKRFEEQQKNDVEKTSFNLLPQPSSIVLEEDHKVEESCAIKNNKEAFSVVGSVLYFTNACLRKLGQPLLNENPQLSEGWEIPKYHQVFSHIV
notes: also called F178A/D181R mutant; source: E. coli BL21 star (DE3), purified (Ni-NTA, SEC); not shown: 6xHis-MBP, N-terminal, kept

- binding result (GST-MTR4-∆N [1]): binds
B7: NVL^167–216 D176A (domain or fragment, human, UniProt O15381 167-216, looked up)
chain: KDSEGGWFIAKTPSVKKDSFFLDLSCEKSNPKKPITEIQDSKDSSLLESD
notes: The methods give Trx-NVL constructs for the NVL pull-downs, so the Trx tag was probably kept; also called D176A mutant; source: E. coli BL21 star (DE3), purified (Ni-NTA, SEC)

- binding result (GST-MTR4-∆N [1]): binds
B8: Trx-NVL^167–216 F186A D189R (domain or fragment, human, UniProt O15381 167-216, looked up)
chain: KDSEGGWFIDKTPSVKKDSAFLRLSCEKSNPKKPITEIQDSKDSSLLESD
notes: also called F186A and D189R mutations in the Nop53-like stretch; source: E. coli BL21 star (DE3), purified (Ni-NTA, SEC); not shown: 6xHis-Trx, N-terminal, kept
